Source: patent publication US20140309404A1

Tests used:
human BMP-6 (human) [1] = biological target: human BMP-6 (human) (UniProt P22004); test: cell-based or functional assay
BMP-2 = test: cell-based or functional assay
BMP-4 = test: cell-based or functional assay
BMP-10 = test: cell-based or functional assay
human BMP-7 (human) [2] = biological target: human BMP-7 (human) (UniProt P18075); test: cell-based or functional assay
human BMP-5 (human) = human BMP-5 (human) (UniProt P22003); test: cell-based or functional assay
BMP-9 = test: cell-based or functional assay
human BMP-6 (human) [3] = biological target: human BMP-6 (human) (UniProt P22004); test: SPR (BIAcore), BMP-6 immobilised on CM4 chip, antibody injected, 37 C
human BMP-7 (human) [4] = biological target: human BMP-7 (human) (UniProt P18075); test: SPR (BIAcore), BMP-7 immobilised on CM4 chip, antibody injected, 37 C

human BMP-7 (human), sequence (P18075 293-431 limits assumed): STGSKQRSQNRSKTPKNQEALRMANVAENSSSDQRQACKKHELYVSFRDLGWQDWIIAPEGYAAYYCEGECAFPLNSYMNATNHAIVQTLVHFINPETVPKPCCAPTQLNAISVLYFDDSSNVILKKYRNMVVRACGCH
human BMP-6 (human), sequence (P22004 382-513 limits assumed): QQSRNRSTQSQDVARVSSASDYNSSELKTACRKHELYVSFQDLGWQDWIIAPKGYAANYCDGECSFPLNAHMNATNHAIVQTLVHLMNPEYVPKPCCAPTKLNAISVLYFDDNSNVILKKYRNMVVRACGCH
human BMP-5 (human), sequence (P22003 317-454 limits assumed): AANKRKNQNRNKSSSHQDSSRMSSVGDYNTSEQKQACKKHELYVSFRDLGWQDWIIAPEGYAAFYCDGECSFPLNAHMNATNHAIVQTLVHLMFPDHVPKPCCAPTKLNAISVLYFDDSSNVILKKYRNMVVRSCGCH

MAB507 (antibody) gave a Geometric Mean IC50 (nM), BMP-6 induced Hep Luc Assay (hepcidin promoter luciferase, HepProm Luc cells) (human BMP-6 (human) [1]) of 22.1 nM, a Mean % Inh at 1000 nM, BMP-2 induced Hep Luc Assay (BMP-2) of -50.6% and a Mean % Inh at 1000 nM, BMP-4 induced Hep Luc Assay (BMP-4) of -65.4%. For the same substance, the Mean % Inh at 1000 nM, BMP-10 induced Hep Luc Assay (BMP-10) was -87.2%, the Mean % Inh at 1000 nM, BMP-7 induced Hep Luc Assay (human BMP-7 (human) [2]) was 54.2% and the Mean % Inh at 1000 nM, BMP-5 induced Hep Luc Assay (human BMP-5 (human)) was -43.5%. It also gave a Mean % Inh at 1000 nM, BMP-9 induced Hep Luc Assay (BMP-9) of -76.1%, a Kd (human BMP-6 (human) [3]) of 1 nM and a koff (human BMP-6 (human) [3]) of 0.000187 s⁻¹. The kon (human BMP-6 (human) [3]) was 187000 M⁻¹ s⁻¹, the Kd (human BMP-7 (human) [4]) was 23.2 nM and the koff (human BMP-7 (human) [4]) was 0.000793 s⁻¹. It also gave a kon (human BMP-7 (human) [4]) of 34200 M⁻¹ s⁻¹.

human IgGPAA4 control (antibody) gave a Mean % Inh at 1000 nM, BMP-2 induced Hep Luc Assay (BMP-2) of 7.8%, a Mean % Inh at 1000 nM, BMP-4 induced Hep Luc Assay (BMP-4) of 4.2% and a Mean % Inh at 1000 nM, BMP-10 induced Hep Luc Assay (BMP-10) of 5.4%. It also gave a Mean % Inh at 1000 nM, BMP-7 induced Hep Luc Assay (human BMP-7 (human) [2]) of -1.7%, a Mean % Inh at 1000 nM, BMP-5 induced Hep Luc Assay (human BMP-5 (human)) of 2.5% and a Mean % Inh at 1000 nM, BMP-9 induced Hep Luc Assay (BMP-9) of 2.8%.
